Laboratory results reported in patent US20170189545A1.
pIC50: −log10 of the molar value.

Legend:
GLP-1 receptor [1] = assay: competition with I-125 exendin-4 (9-39) on RIN-m5F cells expressing GLP-1R, gamma counting
GLP-1 receptor [2] = assay: comparison of IC50 values, competition with I-125 exendin-4 (9-39) on RIN-m5F cells

| Substance | pIC50 (GLP-1 receptor [1]) | fold better activity than Comparative example 1a (Lys^12-PEG5K-Ex4) (GLP-1 receptor [2]) [fold] | fold better activity than Comparative example 1b (Lys^27-PEG5K-Ex4) (GLP-1 receptor [2]) [fold] | fold better activity than Comparative example 2 (Nter-PEG5K-Ex4) (GLP-1 receptor [2]) [fold] |
| --- | --- | --- | --- | --- |
| exendin-4 (peptide) | 9.64 |  |  |  |
| C40-PEG5K-Ex4 (linear) (peptide) | 8.98 | 6 | 2 | 120 |
